Data: PMC13066552 (Nature Communications, 2026)

Experiments:
[1] = target: Bpa 31-146 (Mycobacterium tuberculosis) (UniProt P9WKX3); experiment: NMR titration
[2] = target: the molecule itself; experiment: methyl-TROSY NMR spectra compared
native MS = target: the molecule itself; experiment: native MS

DNA-binding domain of human Telomeric Repeat-binding Factor 1 (residues 378-430) (domain or fragment)
Kd [1]: 1500 nM

B1: Bpa 31-146 (domain or fragment)
chain: DSDESSLTDLVEQPAKVMRIGTMIKQLLEEVRAAPLDEASRNRLRDIHATSIRELEDGLAPELREELDRLTLPFNEDAVPSDAELRIAQAQLVGWLEGLFHGIQTALFAQQMAARA
stoichiometry N [2]: 12 subunits

B2: Mycobacterium tuberculosis bacterial proteasome activator Bpa, full-length wild type (natural protein)
chain: MVIGLSTGSDDDDVEVIGGVDPRLIAVQENDSDESSLTDLVEQPAKVMRIGTMIKQLLEEVRAAPLDEASRNRLRDIHATSIRELEDGLAPELREELDRLTLPFNEDAVPSDAELRIAQAQLVGWLEGLFHGIQTALFAQQMAARAQLQQMRQGALPPGVGKSGQHGHGTGQYL
stoichiometry N (native MS): 2 subunits
